The text below walks through data of patent US9926355.

For this assay, the target named is binary complex of FGFR1c ligand-binding domain with αKlotho ectodomain (murine; human) (UniProt O35082). The assay can be described thus: SPR; immobilized FGF23, αKlotho-FGFR1c complex compared with FGFR1c ligand-binding domain alone (FIGS. 10D and 10E). For orientation: SPR reads the build-up and loss of mass on a sensor chip optically.
binary complex of FGFR1c ligand-binding domain with αKlotho ectodomain (murine; human), sequence (O35082 35-982, form in doubt, chain 1 of 2): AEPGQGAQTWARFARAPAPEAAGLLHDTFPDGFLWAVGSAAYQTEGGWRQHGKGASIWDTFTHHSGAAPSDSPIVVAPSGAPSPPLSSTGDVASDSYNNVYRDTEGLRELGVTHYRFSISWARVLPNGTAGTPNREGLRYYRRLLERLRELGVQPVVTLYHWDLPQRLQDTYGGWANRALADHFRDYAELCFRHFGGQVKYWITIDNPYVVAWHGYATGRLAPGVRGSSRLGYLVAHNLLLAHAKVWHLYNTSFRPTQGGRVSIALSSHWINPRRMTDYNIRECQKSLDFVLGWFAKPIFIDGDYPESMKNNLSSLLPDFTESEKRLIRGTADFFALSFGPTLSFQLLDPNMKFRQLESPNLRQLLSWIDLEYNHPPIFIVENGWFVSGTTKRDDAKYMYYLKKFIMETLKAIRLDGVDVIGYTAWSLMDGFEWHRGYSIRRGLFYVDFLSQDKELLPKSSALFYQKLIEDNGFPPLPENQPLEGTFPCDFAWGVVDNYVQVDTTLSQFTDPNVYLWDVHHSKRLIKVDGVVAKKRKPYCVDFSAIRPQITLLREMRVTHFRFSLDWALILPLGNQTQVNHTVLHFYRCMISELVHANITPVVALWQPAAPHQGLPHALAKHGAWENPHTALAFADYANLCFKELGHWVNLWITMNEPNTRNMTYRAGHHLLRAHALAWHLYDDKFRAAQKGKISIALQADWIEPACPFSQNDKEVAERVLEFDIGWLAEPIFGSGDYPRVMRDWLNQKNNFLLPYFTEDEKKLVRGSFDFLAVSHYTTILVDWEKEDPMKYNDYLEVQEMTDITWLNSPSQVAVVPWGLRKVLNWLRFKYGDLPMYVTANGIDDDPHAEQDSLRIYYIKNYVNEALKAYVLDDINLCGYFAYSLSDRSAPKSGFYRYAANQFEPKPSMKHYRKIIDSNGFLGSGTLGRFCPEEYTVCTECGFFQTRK
binary complex of FGFR1c ligand-binding domain with αKlotho ectodomain (murine; human), sequence (P11362 142-365, form in doubt, chain 2 of 2, further chain): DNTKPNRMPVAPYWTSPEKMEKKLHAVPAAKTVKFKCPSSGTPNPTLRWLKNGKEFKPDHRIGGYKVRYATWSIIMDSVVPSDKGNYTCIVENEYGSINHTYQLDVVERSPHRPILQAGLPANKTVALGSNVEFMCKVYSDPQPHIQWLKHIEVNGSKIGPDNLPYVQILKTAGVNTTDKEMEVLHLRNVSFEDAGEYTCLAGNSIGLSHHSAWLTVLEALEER

B1: N-terminally hexahistidine-tagged, mature form of human FGF23 (Y25 to I251), R176Q/R179Q (ligand, not shown: small tags and cut ends)
chain: YPNASPLLGSSWGGLIHLYTATARNSYHLQIHKNGHVDGAPHQTIYSALMIRSEDAGFVVITGVMSRRYLCMDFRGNIFGSHYFDPENCRFQHQTLENGYDVYHSPQYHFLVSLGRAKRAFLPGMNPPPYSQFLSRRNEIPLIHFNTPIPRQHTQSAEDDSERDPLNVLKPRARMTPAPASCSQELPSAEDNSPMASDPLGVVRGGRVNTHAGGTGPEGCRPFAKFI
With B1, the fold enhancement of affinity against FGFR1c alone is > 20 fold.
